The record followed here is patent US20250388666A1 (BRIGHAM AND WOMEN S HOSPITAL, published 2025).

The target of one assay is T1, human GST-CEACAM1 (human, UniProt P13688 35-141, limits assumed).
T1 construct: printed both as GST-CEACAM1 and CEACAM1-GST; also called human CEACAM1-GST protein; hCEACAM1-GST; not shown: GST tag
T1 sequence: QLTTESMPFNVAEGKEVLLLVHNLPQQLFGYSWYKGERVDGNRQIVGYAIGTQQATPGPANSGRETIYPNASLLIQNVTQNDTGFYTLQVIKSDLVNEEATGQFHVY
The assay can be described thus: competition ELISA vs murine parent antibody. The method, boiled down:
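Competition ELISA on plates coated overnight at 4° C with 1 μg/ml GST-CEACAM1, blocked with 2% BSA/PBS. Each antibody variant competed against the murine parental antibody for antigen binding, benchmarked against the chimeric VH0/Vκ0 antibody run on every plate.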

For assay [1], the target named is T2, CEACAM1 (Sino Biological) (human, UniProt P13688 35-428, limits assumed).
T2 construct: may be the same as CEACAM1-HIS; also called hCEACAM1; biotinylated soluble CEACAM1
T2 sequence: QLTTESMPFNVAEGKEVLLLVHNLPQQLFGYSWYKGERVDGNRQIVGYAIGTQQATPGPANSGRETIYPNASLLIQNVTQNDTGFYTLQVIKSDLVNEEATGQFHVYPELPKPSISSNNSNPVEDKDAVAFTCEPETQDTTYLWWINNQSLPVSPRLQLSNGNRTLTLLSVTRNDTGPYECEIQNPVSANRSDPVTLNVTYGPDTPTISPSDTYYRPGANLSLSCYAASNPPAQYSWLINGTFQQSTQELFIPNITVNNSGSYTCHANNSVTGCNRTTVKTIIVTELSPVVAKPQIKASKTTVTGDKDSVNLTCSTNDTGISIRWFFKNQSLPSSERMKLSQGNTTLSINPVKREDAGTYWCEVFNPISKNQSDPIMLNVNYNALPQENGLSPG
The assay is described as follows: SPR multi-cycle, IgG on Protein A.

Assay [2] deals with T3, CEACAM5 (Sino Biological) (human, UniProt P06731 35-685).
T3 construct: also called hCEACAM5
T3 sequence (looked up): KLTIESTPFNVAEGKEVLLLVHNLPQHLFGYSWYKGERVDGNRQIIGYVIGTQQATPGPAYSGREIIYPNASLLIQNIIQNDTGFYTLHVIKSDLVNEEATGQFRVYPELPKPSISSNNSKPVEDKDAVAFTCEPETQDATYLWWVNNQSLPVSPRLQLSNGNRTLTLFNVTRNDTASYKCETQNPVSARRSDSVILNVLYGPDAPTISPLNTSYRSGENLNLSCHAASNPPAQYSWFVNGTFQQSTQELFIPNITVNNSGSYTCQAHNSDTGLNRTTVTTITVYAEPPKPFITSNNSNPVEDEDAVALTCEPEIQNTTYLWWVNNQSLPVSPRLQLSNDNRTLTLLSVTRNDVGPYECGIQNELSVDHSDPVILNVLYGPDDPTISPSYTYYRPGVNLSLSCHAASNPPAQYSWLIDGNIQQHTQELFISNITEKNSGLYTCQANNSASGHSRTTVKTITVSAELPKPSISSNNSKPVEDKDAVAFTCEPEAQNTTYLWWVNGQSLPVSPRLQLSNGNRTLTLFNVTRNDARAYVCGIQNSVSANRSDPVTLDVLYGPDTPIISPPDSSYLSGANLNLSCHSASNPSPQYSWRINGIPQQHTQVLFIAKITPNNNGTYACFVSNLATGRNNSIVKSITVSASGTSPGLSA
The assay can be described thus: binding ELISA on plate-coated CEACAM (0.5 µg/mL); antibody at 1.67, 0.062 and 0.0069 µg/mL; signal as % of parent IgG on CEACAM1 at 1.67 µg/mL on the same plate. (ELISA stands for enzyme-linked immunosorbent assay.)

Assay [3] concerns the target T4, CEACAM6 (Sino Biological) (human, UniProt P40199 35-320).
T4 construct: also called hCEACAM6
T4 sequence (looked up): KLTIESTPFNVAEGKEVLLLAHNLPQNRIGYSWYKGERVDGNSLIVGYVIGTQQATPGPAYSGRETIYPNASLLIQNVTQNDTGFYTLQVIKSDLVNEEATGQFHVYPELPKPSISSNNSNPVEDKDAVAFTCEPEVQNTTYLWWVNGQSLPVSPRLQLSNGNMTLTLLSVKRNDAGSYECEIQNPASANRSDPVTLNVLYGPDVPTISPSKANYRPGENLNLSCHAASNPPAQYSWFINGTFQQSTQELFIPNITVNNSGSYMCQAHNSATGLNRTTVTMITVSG
The description is as above.

The target in assay [4] is T2, CEACAM1 (Sino Biological). The assay can be described thus: SPR single-cycle; one of the two experiments; the Parent of the other experiment reads 551 nM (r135).

B1: chimeric parental antibody VH0/Vκ0 (antibody, IgG4, V domains shown)
VH: EVQLVESGGGFVKPGGSLKLSCAASGFSFSDYYLYWVRQTPEKRLEWVATISVGGGNTSYPDSVKGRFTISRDNAKNNLYLQMSSLKSEDTAMYYCTRGLYYGPAWFAYWGQGTLVTVSA
VL: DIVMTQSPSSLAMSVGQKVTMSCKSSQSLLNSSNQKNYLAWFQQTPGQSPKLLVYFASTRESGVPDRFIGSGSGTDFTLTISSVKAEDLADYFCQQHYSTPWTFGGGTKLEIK
notes: IgG4 (S241P), kappa; also called Chimera; chimeric antibody
With B1, in the assay with human GST-CEACAM1, the “average relative IC50 (normalized to chimeric antibody)” value was determined as 1 ratio.

B2: VH2 N56Q/Vκ4 S27(f)A IgG (antibody, V domains shown)
VH: EVQLLESGGGLVQPGGSLRLSCAASGFSFSDYYLYWVRQAPGKGLEWVATISVGGGQTSYADSVKGRFTISRDNSKNTLYLQMNSLRAEDTAMYYCTRGLYYGPAWFAYWGQGTLVTVSS
VL: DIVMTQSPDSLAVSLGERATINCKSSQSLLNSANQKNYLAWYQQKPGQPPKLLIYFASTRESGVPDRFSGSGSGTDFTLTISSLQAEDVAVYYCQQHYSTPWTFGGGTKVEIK
notes: IgG4 S241P, kappa; also called Parent; Parent IgG
Regarding B2, in assay [1], the “relative KD to Parent” value was 1 ratio. Moreover, the binding result in assay [2] and in assay [3] was “no binding (tested: 1.67 µg/mL)” throughout. Moreover, in assay [4], the dissociation constant (Kd) (in general, the constant that tells how readily two partners part at equilibrium) came to 159 nM.
